The results in this text go back to the supplement of paper PMC7877785.

± gives the uncertainty stated by the source.

The series in a line: self-splicing fitness, log relative to wild type (ln ratio); higher = more splicing; Tetrahymena group I intron in knt gene, E. coli kanamycin selection, DiMSum; sequences stand for … in CUCUCU…GGAGGGAAAAGUUAUCAGGCAUGCACCUGGUAGCUAGUCUUUAAACCAAUAGAUUGCAUCGGUUUAAAAGGCAAGACCGUCAAAUUGCGGGAAAGGGGUCAACAGCCGUUCAGUACCAAGUCUCAGGGGAAACUUUGAGAUGGCCUUGCAAAGGGUAUGGUAAUAAGCUGACGGACAUGGUCCUAACCACGCAGCCAAGUCCUAAGUCAACAGAUCUUCUGUUGAUAUGGAUGCAGUUCACAGACUAAAUGUCGGUCGGGGAAGAUGUAUUCUUCUCAUAAGAUAUAGUCGGACCUCUCCUUAAUGGGAGCUAGCGGAUGAAGUGAUGCAACACUGGAGCCGCUGGGAACUAAUUUGUAUGCGAAAGUAUAUUGAUUAGUUUUGGAGUACUCGUGGUCG
In a few lines: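 DiMSum derived fitness as the error-weighted combination of fold changes across replicates, kanamycin versus no kanamycin, normalised to wild type. E. coli BL21(DE3) held the library, which randomised all eight P1ex-region intron nucleotides within the knt kanamycin-resistance gene on pET-22b(+). Six replicate transformations grew overnight at 37°C or 30°C on LB agar with or without 25 μg/mL kanamycin, also containing 100 μg/mL carbenicillin, 50 μM IPTG and 0.2% rhamnose, and pooled colonies were amplicon-sequenced on an Illumina HiSeq 2500.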

With GCUGAGCAAUAUUACGCUGG, the “self-splicing fitness (ln)” value (30 °C) is -3.26 ± 0.31 and the “self-splicing fitness (ln)” value (37 °C) is -2.22 ± 0.42. The like results for GCUGAGCAAUAUUACGGAAU were, in that order, -3.57 ± 0.25 and -1.3 ± 0.17.

As for GCUGAGCAAUAUUACGGAUG, the “self-splicing fitness (ln)” value reads like this: (30 °C) -3.53 ± 0.18; (37 °C) -1.22 ± 0.12. GCUGAGCAAUAUUACGGCGC: the “self-splicing fitness (ln)” value (30 °C) was -0.35 ± 0.13 and the “self-splicing fitness (ln)” value (37 °C) is -0.0749 ± 0.15. The like results for GCUGAGCAAUAUUACGGCUG were, in that order, -1.57 ± 0.26 and -1.96 ± 0.44. On the same counts, the results for GCUGAGCAAUAUUACGUACA are -2.45 ± 0.24 and -2.88 ± 0.28. Turning to GCUGAGCAAUAUUACGUACU, the “self-splicing fitness (ln)” value was -1.76 ± 0.23 (30 °C) and -1.07 ± 0.27 (37 °C). The like results for GCUGAGCAAUAUUACGUCAG were, in that order, -3.35 ± 0.24 and -2.15 ± 0.26. The like results for GCUGAGCAAUAUUACGUGCG were, in that order, -1.62 ± 0.099 and -1.01 ± 0.14. The like results for GCUGAGCAAUAUUACGUGCU were, in that order, -3.42 ± 0.12 and -3.39 ± 0.2. Turning to GCUGAGCAAUAUUACGUUGC, the “self-splicing fitness (ln)” value (30 °C) was -4.04 ± 0.2 and the “self-splicing fitness (ln)” value (37 °C) was -2.53 ± 0.17.

In the case of GCUUAGCAAUAUUACGAAAU, the “self-splicing fitness (ln)” value is -0.692 ± 0.076 (30 °C) and -0.498 ± 0.095 (37 °C).

Consider GCUUAGCAAUAUUACGAAGA, for which the “self-splicing fitness (ln)” value is 0.387 ± 0.24 (30 °C) and -0.855 ± 0.15 (37 °C).

For GCUUAGCAAUAUUACGACCG, the “self-splicing fitness (ln)” value by setting is: (30 °C) -1.2 ± 0.26; (37 °C) -1.19 ± 0.29. On the same counts, the results for GCUUAGCAAUAUUACGAGCC are -4.35 ± 0.39 and -1.53 ± 0.39. As for GCUUAGCAAUAUUACGAGGC, the “self-splicing fitness (ln)” value (37 °C) is -1.93 ± 0.41. For GCUUAGCAAUAUUACGAUGC, the “self-splicing fitness (ln)” value is, setting by setting: (30 °C) -1.43 ± 0.13; (37 °C) -0.976 ± 0.21. On the same counts, the results for GCUUAGCAAUAUUACGAUUG are -3.31 ± 0.25 and -1.01 ± 0.17. On the same counts, the results for GCUUAGCAAUAUUACGCAAU are -0.651 ± 0.14 and -1.35 ± 0.13.

Regarding GCUUAGCAAUAUUACGCUAG, the “self-splicing fitness (ln)” value is -2.81 ± 0.12 (30 °C) and -2.19 ± 0.14 (37 °C). With GCUUAGCAAUAUUACGCUCG, the “self-splicing fitness (ln)” value is, setting by setting: (30 °C) -0.579 ± 0.1; (37 °C) -0.0325 ± 0.16. The like results for GCUUAGCAAUAUUACGGAAG were, in that order, -2.07 ± 0.14 and -1.68 ± 0.14. GCUUAGCAAUAUUACGGCAC: the “self-splicing fitness (ln)” value is -2.62 ± 0.44 (30 °C) and 0.326 ± 0.28 (37 °C).

Turning to GCUUAGCAAUAUUACGGCGG, the “self-splicing fitness (ln)” value was -3.5 ± 0.2 (30 °C) and -3.14 ± 0.26 (37 °C). The like results for GCUUAGCAAUAUUACGGGGU were, in that order, -2.56 ± 0.16 and -2.55 ± 0.21.

On to GCUUAGCAAUAUUACGGUAU, for which the “self-splicing fitness (ln)” value is, setting by setting: (30 °C) -1.74 ± 0.074; (37 °C) -1.15 ± 0.091. As to GCUUAGCAAUAUUACGUAAC, the “self-splicing fitness (ln)” value is, setting by setting: (30 °C) -0.517 ± 0.11; (37 °C) -0.62 ± 0.24. Take GCUUAGCAAUAUUACGUACG: the “self-splicing fitness (ln)” value (30 °C) is -1.07 ± 0.065 and the “self-splicing fitness (ln)” value (37 °C) was 0.0666 ± 0.089. On the same counts, the results for GCUUAGCAAUAUUACGUAUG are -1.6 ± 0.18 and -1.17 ± 0.2. In the case of GCUUAGCAAUAUUACGUGUU, the “self-splicing fitness (ln)” value (30 °C) is -0.915 ± 0.081 and the “self-splicing fitness (ln)” value (37 °C) is -0.409 ± 0.087.

In the case of GCUUAGCAAUAUUACGUUAA, the “self-splicing fitness (ln)” value (37 °C) is -2.84 ± 0.29. Take GCUUAGCAAUAUUACGUUUG: the “self-splicing fitness (ln)” value was -2.23 ± 0.12 (30 °C) and -1.58 ± 0.14 (37 °C). On to GGAAAGCAAUAUUACGACGC, for which the “self-splicing fitness (ln)” value (30 °C) is -0.197 ± 0.1 and the “self-splicing fitness (ln)” value (37 °C) was 0.595 ± 0.16. On the same counts, the results for GGAAAGCAAUAUUACGAUGG are -3.14 ± 0.22 and -2.39 ± 0.21. The like results for GGAAAGCAAUAUUACGCAUA were, in that order, -0.868 ± 0.1 and -1.5 ± 0.12.

Turning to GGAAAGCAAUAUUACGCGAG, the “self-splicing fitness (ln)” value is -0.597 ± 0.1 (30 °C) and 0.758 ± 0.1 (37 °C). Regarding GGAAAGCAAUAUUACGCGUU, the “self-splicing fitness (ln)” value is, setting by setting: (30 °C) -3.16 ± 0.16; (37 °C) -2.49 ± 0.19.
